Data from publication PMC7064404.

Assays:
[1] = biological target: GST-Shank3 (572-691) wild type, pre-phosphorylated by CaMKIIα at Ser685 (rat); assay: pull-down
[2] = biological target: GFP-tagged full length Shank3 S685D (rat) (rat); assay: co-IP
[3] = biological target: GFP-tagged full length Shank3 S685A (rat) (rat); assay: co-IP

GST-Shank3 (572-691) wild type, pre-phosphorylated by CaMKIIα at Ser685 (rat), sequence (Q9JLU4 572-691): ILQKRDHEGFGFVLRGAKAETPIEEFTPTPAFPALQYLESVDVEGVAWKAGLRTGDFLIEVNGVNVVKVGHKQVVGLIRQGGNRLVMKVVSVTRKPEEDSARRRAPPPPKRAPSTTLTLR

N-terminal HA-tagged ABI1 (Abelson interactor 1), full length (from UniProt Q8IZP0 1-508) (natural protein)
HA-ABI1 binding (HA/GST) relative to no CaMKII condition [1]: 148%
percent reduction of co-immunoprecipitated HA-ABI1 (HA/GFP) compared to WT [2]: 32%
percent reduction of co-immunoprecipitated HA-ABI1 (HA/GFP) compared to WT [3]: 37%
